This is an account of results in patent US20140155325A1 (Janssen / Centocor, published 2014).

To fix the notation:
B1: P54CR4-31 (designed binder)
chain: LPAPKNLVVSEVTEDSLRLSWTAPDAAFDSFLIQYQESEKVGEAINLTVPGSERSYDLTGLKPGTEYTVSIYGVLGSYVFEHDVMLPLSAEFTT
notes: not shown: C-terminal poly-histidine tag
B2: P114AR5P74-A5 (designed binder, not shown: small tags and cut ends)
chain: LPAPKNLVVSRVTEDSARLSWTAPDAAFDSFWIRYDEVVVGGEAIVLTVPGSERSYDLTGLKPGTEYYVNILGVKGGSISVPLSAIFTT
B3: P114AR7P95-F10 (designed binder, not shown: small tags and cut ends)
chain: B2 chain with D36F, V38F, V39T, V40T, G41A, Y68V, L72M, V81P
B4: P114AR7P92-H5 (designed binder, not shown: small tags and cut ends)
chain: B2 chain with D36L, V38F, V39L, V40L, Y68V, N70Q, L72M, S78T, I79V, V81P
B5: P114AR7P94-A3 (designed binder, not shown: small tags and cut ends)
chain: B2 chain with D36F, V38F, V39L, V40G, G41S, Y68V, L72M, S78K, V81P
B6: P114AR7P92-F6 (designed binder, not shown: small tags and cut ends)
chain: B2 chain with D36F, V38F, V39L, V40G, G41S, Y68V, S78G, I79L
B7: P114AR7P95-H8 (designed binder, not shown: small tags and cut ends)
chain: B2 chain with D36F, V38F, V40S, G41K, Y68V, L72M, V81P
B8: P114AR7P95-G7 (designed binder, not shown: small tags and cut ends)
chain: B2 chain with D36F, V38L, V39L, V40S, G41T, Y68V, L72M, V81P
B9: P114AR7P92-G8 (designed binder, not shown: small tags and cut ends)
chain: B2 chain with W32V, D36F, V38F, V39L, V40G, G41S, Y68V, N70Q, S78Y, V81I
B10: P114AR5P75-E9 (designed binder, not shown: small tags and cut ends)
chain: B2 chain with W32F, V38F, V39L, V40R, G41S, Y68W, N70T, S78L, I79V, V81T
B11: P114AR7P95-D4 (designed binder, not shown: small tags and cut ends)
chain: B2 chain with D36F, V38F, V39L, V40G, G41S, Y68V, N70Q, S78Y, V81I
B12: P114AR7P94-E5 (designed binder, not shown: small tags and cut ends)
chain: B2 chain with D36F, V38F, V39L, V40G, G41S, Y68A, L72M, S78R, I79V
B13: P114AR7P93-H9 (designed binder, not shown: small tags and cut ends)
chain: B2 chain with D36F, V38F, V39L, V40G, G41S, Y68V, N70Q, L72I, S78H, V81L
B14: P114AR7P93-G8 (designed binder, not shown: small tags and cut ends)
chain: LPAPKNLVVSRVTEDSARLSWTAPDAAFDSFWIRYFEFLGSGEAIVLTVPGSERSYDLTDLKPGTEYGVTINGVKGGRVSTPLSAIFTT
B15: ECB5 (designed binder, not shown: small tags and cut ends)
chain: MLPAPKNLVVSEVTEDSARLSWADPHGFYDSFLIQYQESEKVGEAIVLTVPGSERSYDLTGLKPGTEYTVSIYGVHNVYKDTNMRGLPLSAIFTTGGGGSGGGGSGGGGSGGGGSMLPAPKNLVVSRVTEDSARLSWTAPDAAFDSFWIRYFEFLGSGEAIVLTVPGSERSYDLTGLKPGTEYVVNIMGVKGGKISPPLSAIFTT
B16: Bispecific Centyrin (83-H9) (designed binder)
chain: B15 chain with A23D, H26W, G27A, D30E, N186Q, M188I, K194H, P197L
B17: ECB109 (designed binder, not shown: small tags and cut ends)
chain: MLPAPKNLVVSEVTEDSARLSWDDPHAFYESFLIQYQESEKVGEAIVLTVPGSERSYDLTGLKPGTEYTVSIYGVHNVYKDTNIRGLPLSAIFTTAPAPAPAPAPLPAPKNLVVSRVTEDSARLSWTAPDAAFDSFWIRYFEFLGSGEAIVLTVPGSERSYDLTGLKPGTEYVVNILSVKGGSISPPLSAIFTT
B18: ECB94 (designed binder, not shown: small tags and cut ends)
chain: B17 chain with H26W, S178G, S183K
B19: ECB107 (designed binder, not shown: small tags and cut ends)
chain: B17 chain with L144V, S178G
B20: ECB96 (designed binder, not shown: small tags and cut ends)
chain: B17 chain with H26W, L144V, G145S, S146K, E148D, S178G
B21: ECB106 (designed binder, not shown: small tags and cut ends)
chain: B17 chain with S178G, S183K
B22: ECB15 (designed binder, not shown: small tags and cut ends)
chain: B17 chain with H26W, I84M, L177M, S178G, S183K
B23: ECB95 (designed binder, not shown: small tags and cut ends)
chain: B17 chain with H26W, L144V, S178G
B24: ECB108 (designed binder, not shown: small tags and cut ends)
chain: B17 chain with L144V, G145S, S146K, E148D, S178G
B25: A3 K78S (designed binder)
chain: LPAPKNLVVSEVTEDSARLSWDDPWAFYESFLIQYQESEKVGEAIVLTVPGSERSYDLTGLKPGTEYTVSIYGVHNVYKDTNMRGLPLSAIFTTAPAPAPAPAPLPAPKNLVVSRVTEDSARLSWTAPDAAFDSFWIRYFEFLGSGEAIVLTVPGSERSYDLTGLKPGTEYVVNIMGVKGGSISPPLSAIFTT
B26: A3 F36S (designed binder)
chain: B25 chain with F140S, S182K
B27: A3 L39S (designed binder)
chain: B25 chain with L143S, S182K
B28: A3 G40S (designed binder)
chain: B25 chain with G144S, S182K
B29: A3 N70S (designed binder)
chain: B25 chain with N174S, S182K
B30: A3 P81S (designed binder)
chain: B25 chain with S182K, P185S
B31: A3 F38S (designed binder)
chain: B25 chain with F142S, S182K
B32: A3 V68S (designed binder)
chain: B25 chain with V172S, S182K
B33: A3 W32S (designed binder)
chain: B25 chain with W136S, S182K

Changes are numbered by the printed parent chain. Numbers in names are those of the source.

In one test the target is T1, human EGFR (epidermal growth factor receptor) on cells (human, UniProt P00533 25-1210).
T1 construct: Endogenous EGFR of human tumor cell lines; also called HER-1; Erb-B1
In words: A431 cell binding, anti-His-Alexa488.
Consider B1, for which the concentration giving a half-maximal response (EC50) – broadly, the concentration giving half of the maximal effect – is > 20 µM.

In the next test the target is recombinant human c-Met Fc chimera (human) (UniProt P08581). In words: SPR (ProteOn), c-Met-Fc captured by anti-human Fc.
In the case of B2, the equilibrium dissociation constant (Kd) (as a rule, the free concentration of one partner at which half of the binding sites on the other are occupied at equilibrium, for simple one-to-one binding) stood at 10.1 nM.

In the case of B3, the Kd is 4.2 nM.

On to B4, for which the Kd was 11.6 nM.

As to B5, the Kd worked out at 0.4 nM.

For the molecule B6, the Kd came to 3.1 nM.

In the case of B7, the dissociation constant (Kd) was 3.7 nM.

For B8, the Kd is 20 nM.

As for B9, the equilibrium dissociation constant (Kd) was found to be 1 nM.

Turning to B10, the Kd is 45.8 nM.

B11: the Kd was 0.4 nM.

In the case of B12, the Kd is 4.2 nM.

B13: the Kd was 3.3 nM.

With B14, the Kd was found to be 6.9 nM.

Another test shares this target. Nature of the test: HGF competition (biotinylated HGF on coated c-Met-Fc).
Consider B2, for which the IC50 – broadly, the concentration at which inhibition is half-maximal – was determined as 5.2 nM.

Regarding B3, the IC50 was 1.4 nM.

As for B5, the IC50 turned out to be 0.2 nM.

With B6, the half-maximal inhibitory concentration (IC50) was 2.2 nM.

As to B9, the IC50 was determined as 1.6 nM.

Consider B10, for which the 50% inhibitory concentration (IC50) was determined as 51.9 nM.

For B12, the 50% inhibitory concentration (IC50) was 0.7 nM.

As to B13, the concentration for half-maximal inhibition (IC50) came out at 2.9 nM.

In the case of B14, the IC50 came to 1 nM.

For the next test, the target named is human EGFR (epidermal growth factor receptor) on cells (human) (UniProt P00533).
Experiment: not given
The molecule B15 had an IC50, inhibition of EGF-stimulated EGFR phosphorylation (relative pEGFR, RCLU) in H441 cells, +10 ng/mL EGF [+10ng/mL EGF), IC50 table] of 2.3 nM.

The target is the same in a further test.
Experiment: not given
The source holds these as a separate data set.
As to B15, the IC50, inhibition of EGF-stimulated EGFR phosphorylation (relative pEGFR, RCLU) in H596 cells, +2.5 ng/mL EGF [+2.5ng/mL EGF), IC50 table] turned out to be 83.2 nM.

The next test shares this target.
Experiment: not given
The source holds these as a separate data set.
On to B15, for which the IC50, inhibition of EGF-stimulated EGFR phosphorylation (relative pEGFR, RCLU) in H292 cells, +50 ng/mL EGF [+50ng/mL EGF), IC50 table] is 76.6 nM.

Another test addresses human c-Met (hepatocyte growth factor receptor) on cells (human, UniProt P08581 25-1390). In words: cell-based or functional assay.
In the case of B13, the “IC50, inhibition of HGF-stimulated c-Met phosphorylation (relative pc-Met, RCLU) in H596 cells, +5 ng/mL HGF [+5ng/mL HGF), IC50 table]” value came out at 80.8 nM.

Turning to B16, the “IC50, inhibition of HGF-stimulated c-Met phosphorylation (relative pc-Met, RCLU) in H596 cells, +5 ng/mL HGF [+5ng/mL HGF), IC50 table]” value stood at 0.0789 nM.

For the next test, the target named is recombinant human c-Met Fc chimera (human) (UniProt P08581). Nature of the test: SPR (ProteOn), protocol of Example 3.
Turning to B17, the Kd is 2.1 nM.

With B18, the Kd was 4.3 nM.

B19: the Kd was 9 nM.

Turning to B20, the equilibrium dissociation constant (Kd) worked out at 22.1 nM.

Turning to B21, the equilibrium dissociation constant (Kd) turned out to be 5.1 nM.

In the case of B22, the dissociation constant Kd came to 2.6 nM.

B23: the Kd is 6.2 nM.

With B24, the equilibrium dissociation constant (Kd) was determined as 25.5 nM.

For the next test the target is unchanged. Nature of the test: SPR, serine scan in the context of ECB15. (In SPR one partner is held on a chip, and binding of the other changes the refractive index at the surface.)
As to B25, the Fold Change of KD against parent was determined as 0.75 fold, the Kd worked out at 0.3 nM, the off-rate constant (koff) (usually a measure of how fast the partners let go of each other) amounted to 0.00015 s⁻¹ and the kon (usually the second-order rate constant of association) worked out at 440000 M⁻¹ s⁻¹.

Consider B26, for which the Fold Change of KD against parent is 68 fold, the Kd was 27.2 nM, the koff stood at 0.00512 s⁻¹ and the kon came out at 188000 M⁻¹ s⁻¹.

On to B27, for which the Fold Change of KD against parent was 6.75 fold, the dissociation constant (Kd) was determined as 2.7 nM, the koff is 0.00127 s⁻¹ and the kon is 475000 M⁻¹ s⁻¹.

Consider B28, for which the Fold Change of KD against parent amounted to 4.25 fold, the Kd is 1.7 nM, the koff came to 0.00032 s⁻¹ and the kon is 185000 M⁻¹ s⁻¹.

Take B29: the Fold Change of KD against parent was 14.8 fold, the Kd worked out at 5.9 nM, the koff is 0.00249 s⁻¹ and the kon is 425000 M⁻¹ s⁻¹.

Take B30: the Fold Change of KD against parent came to 4.25 fold, the dissociation constant Kd stood at 1.7 nM, the off-rate (koff) is 0.000536 s⁻¹ and the on-rate constant (kon) came out at 321000 M⁻¹ s⁻¹.

With B31, the Fold Change of KD against parent came out at 1790 fold, the Kd was found to be 717 nM, the koff came to 0.0323 s⁻¹ and the kon worked out at 45100 M⁻¹ s⁻¹.

As to B32, the Fold Change of KD against parent came to 9 fold, the dissociation constant (Kd) was 3.6 nM, the dissociation rate constant (koff) came out at 0.0012 s⁻¹ and the kon worked out at 329000 M⁻¹ s⁻¹.

For the molecule B33, the Fold Change of KD against parent was 74.5 fold, the Kd turned out to be 29.8 nM, the koff worked out at 0.0086 s⁻¹ and the kon is 289000 M⁻¹ s⁻¹.

In another test the target is human EGFR (epidermal growth factor receptor) on cells (human) (UniProt P00533). Nature of the test: cell-based or functional assay.
In turn, B15 displayed a fold decrease of the IC50 for inhibition of EGFR phosphorylation in NCI-H441 cells against monospecific P53A1R5-17v2 of 30 fold.
